The target of assay [1] is T1, biotinylated human C1q (human, UniProt P02745 23-245; P02746 28-253; P02747 29-245).
Assay [2] addresses T2, CD20 on Raji cells (human, UniProt P11836 1-297).
T2 sequence (looked up): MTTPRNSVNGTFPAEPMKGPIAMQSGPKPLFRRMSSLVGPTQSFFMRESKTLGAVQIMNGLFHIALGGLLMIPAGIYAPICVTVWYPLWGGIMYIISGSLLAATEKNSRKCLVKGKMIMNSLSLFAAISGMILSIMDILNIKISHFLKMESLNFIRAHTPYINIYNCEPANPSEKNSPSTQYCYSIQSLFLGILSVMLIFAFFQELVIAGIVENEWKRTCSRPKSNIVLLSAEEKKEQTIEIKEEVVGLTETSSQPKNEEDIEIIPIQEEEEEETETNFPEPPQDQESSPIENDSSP

Assay [3] addresses T3, human complement component 1q (C1q) (human, UniProt P02745 23-245; P02746 28-253; P02747 29-245).
Assay [4] concerns the target T2, CD20 on Raji cells. The source holds these as a separate data set.
For assay [5], the target named is T3, human complement component 1q (C1q). The source holds these as a separate data set.
The target of assay [6] is T4, IsdA.6×(His) (Staphylococcus aureus, UniProt A6QG31 47-316).
T4 sequence: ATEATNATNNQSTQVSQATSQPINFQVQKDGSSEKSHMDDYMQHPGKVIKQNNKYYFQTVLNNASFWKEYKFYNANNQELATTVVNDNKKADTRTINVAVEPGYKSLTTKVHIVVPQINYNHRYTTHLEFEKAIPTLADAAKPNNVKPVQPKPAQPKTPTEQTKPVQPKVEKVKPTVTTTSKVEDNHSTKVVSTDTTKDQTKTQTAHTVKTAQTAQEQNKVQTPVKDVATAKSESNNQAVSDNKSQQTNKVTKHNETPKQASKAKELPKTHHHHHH
In words: SPR (Biacore), 37C; IsdA.6xHis captured, bsAb injected. In general terms: Surface plasmon resonance follows binding to a sensor surface in real time, without labels.

The target of assay [7] is T3, human complement component 1q (C1q). This is another data set of the same source.
Assay [8] deals with T5, human GITR on Jurkat/hGITR/hCD20 cells (human, UniProt Q9Y5U5 26-241).
T5 sequence (looked up): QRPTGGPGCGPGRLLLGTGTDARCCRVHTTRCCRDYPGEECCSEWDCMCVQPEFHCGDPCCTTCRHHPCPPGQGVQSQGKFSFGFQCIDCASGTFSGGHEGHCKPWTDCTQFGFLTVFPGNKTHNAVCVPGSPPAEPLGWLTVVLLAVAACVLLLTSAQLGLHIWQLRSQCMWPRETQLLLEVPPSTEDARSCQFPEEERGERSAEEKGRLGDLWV

The target in assay [9] is T1, biotinylated human C1q. This is another data set of the same source.
Assay [10] concerns the target IsdB.6×(His) (Staphylococcus aureus, UniProt A6QG30 41-613). Kind of assay: SPR (Biacore T200), 37C; antibody captured, IsdB.6xHis injected.
In assay [11] the target is T6, hemagglutinin (HA) on A/Puerto Rico/08/1934 (H1N1)-infected MDCK cells (Influenza A virus A/Puerto Rico/08/1934 …, UniProt P03452 18-565).
T6 construct: whole, on cells; also called Influenza HA
Kind of assay: cell ELISA on fixed A/Puerto Rico/08/1934 (H1N1)-infected MDCK cells. (In general: In an ELISA, binding on a coated surface is turned into a signal by an enzyme label.)

Assay [12] addresses T6, hemagglutinin (HA) on A/Puerto …. In words: cell-based or functional assay.
Assay [13] concerns the target T1, biotinylated human C1q.
The target of assay [14] is T3, human complement component 1q (C1q). Kind of assay: SPR (Biacore T200), 25C; bsAb captured via anti-human F(ab')2, hC1q injected.
Assay [15] shares this target. Kind of assay: SPR (Biacore T200), 37C; bsAb captured via anti-human F(ab')2, hC1q injected.
In assay [16] the target is T1, biotinylated human C1q. The source holds these as a separate data set.

Read-outs that look alike come from different tables or passages of the source.

T1 sequence (P02745 23-245, chain 1 of 3): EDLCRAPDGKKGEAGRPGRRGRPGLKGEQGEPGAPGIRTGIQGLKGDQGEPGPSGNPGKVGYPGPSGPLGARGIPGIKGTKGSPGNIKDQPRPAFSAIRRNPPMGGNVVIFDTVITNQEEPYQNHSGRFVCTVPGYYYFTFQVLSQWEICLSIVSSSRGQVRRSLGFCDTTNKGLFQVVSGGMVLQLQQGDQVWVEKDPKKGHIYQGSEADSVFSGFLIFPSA
T1 sequence (P02746 28-253, chain 2 of 3): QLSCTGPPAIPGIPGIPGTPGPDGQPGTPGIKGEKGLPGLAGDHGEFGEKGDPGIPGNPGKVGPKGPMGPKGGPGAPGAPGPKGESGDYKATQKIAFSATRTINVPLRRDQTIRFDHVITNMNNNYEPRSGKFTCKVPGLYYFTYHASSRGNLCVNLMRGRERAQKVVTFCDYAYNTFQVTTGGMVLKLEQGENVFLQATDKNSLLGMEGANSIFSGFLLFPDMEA
T1 sequence (P02747 29-245, chain 3 of 3): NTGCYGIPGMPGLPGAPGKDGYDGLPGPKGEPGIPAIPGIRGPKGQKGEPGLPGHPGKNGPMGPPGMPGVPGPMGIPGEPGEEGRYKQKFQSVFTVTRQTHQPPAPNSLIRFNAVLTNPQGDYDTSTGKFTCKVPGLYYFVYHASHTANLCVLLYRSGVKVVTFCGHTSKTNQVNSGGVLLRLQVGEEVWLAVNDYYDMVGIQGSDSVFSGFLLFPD
T3 sequence (P02745 23-245, chain 1 of 3): as the sequence (P02745 23-245, chain 1 of 3) above
T3 sequence (P02746 28-253, chain 2 of 3): as the sequence (P02746 28-253, chain 2 of 3) above
T3 sequence (P02747 29-245, chain 3 of 3): as the sequence (P02747 29-245, chain 3 of 3) above

B1: REGN5177, anti-CD20 x anti-C1q bispecific antibody (bispecific antibody, V domains shown)
VH 1: QVHLVESGGGVVQPGRSLRLSCSVSGLTFNSYGMHWVRQAPGKGLEWVTMISYDGSDKYYLDSVKGRFTISRDNSKNILYLQINSLRPEDTAVYYCVNWDNWRGNFDYWGQGTLVTVSS
VH 2: EVQLVESGGGVVQPGGSLRLSCAASGFSLDDYAMHWVRQTPGKGLEWVSLISGDGSRTSYADSVKGRFTISRDNSKNSLYLKMNSLRTEDTALYYCTKDPHNSNWFDPWGQGTLVTVSS
VL: not shown
Consider B1, for which the figures for the Kd in assay [1], in assay [3] and in [5] were 436 nM, 0.481 nM and 0.688 nM, respectively. For the same molecule, the results for the off-rate constant (koff) in assay [1], in assay [3] and in assay [5] were 0.0442 s⁻¹, 0.00499 s⁻¹ and 0.00224 s⁻¹, respectively. Moreover, the results for the on-rate (kon) in assay [1], in assay [3] and in assay [5] were 101000 M⁻¹ s⁻¹, 1.04e+07 M⁻¹ s⁻¹ and 3.26e+06 M⁻¹ s⁻¹, respectively. The EC50 in assay [2] stood at 35.6 nM; in assay [4], 35.7 nM.

B2: mAb14303, anti-CD20 parental bivalent hIgG1 antibody (antibody, V domains shown)
VH: B1 VH 1
VL: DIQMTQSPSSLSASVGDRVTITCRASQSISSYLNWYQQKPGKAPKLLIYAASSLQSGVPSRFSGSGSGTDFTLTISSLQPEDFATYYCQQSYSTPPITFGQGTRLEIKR
For the molecule B2, the EC50 in [2] and in assay [4] was 6.03 nM each time.

B3: REGN5553, anti-IsdA x anti-C1q bispecific antibody (bispecific antibody, V domains shown)
VH 1: EVQLVESGGGLVQPGRSLRVSCAASGFTFDDYAMHWVRQIPGKGLEWVSGIRWNSDTIGYADSVKGRFTISRDNAKNFLYLQMNSLRTEDTALYYCVKDMRVRGIIMYGMDVWGQGTTVTVSS
VH 2: B1 VH 2
VL: not shown
notes: also called bsC1q × IsdA; bs hC1q × IsdA
In assay [6], B3 returned a dissociation constant Kd of 3.62 nM, a T1/2 of 11.8 min, a koff of 0.000977 s⁻¹ and a kon of 270000 M⁻¹ s⁻¹. In [7], this molecule registered an equilibrium dissociation constant (Kd) of 1.3 nM, a koff of 0.00469 s⁻¹ and an association rate constant (kon) of 3.62e+06 M⁻¹ s⁻¹.

B4: REGN5372, anti-GITR bivalent hIgG1 antibody (antibody, V domains shown)
VH: QVQLQESGPGLVKPSETLSLTCIVSGGSISGYFWNWIRQPPGKGLEWIGYIYYSGTTIYNPSLKSRFTISLDTSKNQFSLKLTSVTAADTAVYYCARESYNPSPRYFDHWGQGTLVTVSS
VL: not shown
B4: the half-maximal effective concentration (EC50) in [8] worked out at 3.07 nM.

B5: REGN5409, anti-Psl x anti-C1q scFv bispecific antibody (bispecific antibody, human IgG1, lambda)
heavy: not shown
light: SSELTQDPAVSVALGQTVRITCQGDSLRSYYASWYQQKPGQAPVLVIYGKNNRPSGIPDRFSGSSSGNTASLTITGAQAEDEADYYCNSRDSSGNHVVFGGGTKLTVLGQPKAAPSVTLFPPSSEELQANKATLVCLISDFYPGAVTVAWKADSSPVKAGVETTTPSKQSNNKYAASSYLSLTPEQWKSHRSYSCQVTHEGSTVEKTVAPTECS
scFv: not shown
For B5, the dissociation constant (Kd) in assay [1] was 431 nM; in [3] it was 2.41 nM; in assay [9], 343 nM; in assay [5] it was 0.747 nM. The koff was determined as 0.0276 s⁻¹ in assay [1], 0.0116 s⁻¹ in assay [3], 0.0149 s⁻¹ in [9] and 0.00262 s⁻¹ in assay [5]. The kon in [1] came out at 64000 M⁻¹ s⁻¹; in assay [3] it was 4.8e+06 M⁻¹ s⁻¹; in assay [9] it was 43500 M⁻¹ s⁻¹; in assay [5], 3.51e+06 M⁻¹ s⁻¹.

B6: REGN5536, anti-PNAG x anti-C1q scFv bispecific antibody (bispecific antibody, human IgG1, lambda)
heavy: not shown
light: QLVLTQSPSASASLGASVKLTCTLSSGHSNYAIAWHQQQPGKGPRYLMKVNRDGSHIRGDGIPDRFSGSTSGAERYLTISSLQSEDEADYYCQTWGAGIRVFGGGTKLTVLGQPKAAPSVTLFPPSSEELQANKATLVCLISDFYPGAVTVAWKADSSPVKAGVETTTPSKQSNNKYAASSYLSLTPEQWKSHRSYSCQVTHEGSTVEKTVAPTECS
scFv: not shown
Regarding B6, in assay [7], the dissociation constant Kd is 0.632 nM, the off-rate constant (koff) was 0.0102 s⁻¹ and the kon turned out to be 1.61e+07 M⁻¹ s⁻¹.

B7: parental bivalent anti-IsdB antibody (antibody, V domains shown)
VH: EVQLVESGGGLVQPGRSLRLSCTTSGFTFDDYAMHWVRQVPGQGLEWVAGLSWNSDTIGYADSVKGRFTISRDNAKNSLYLQMKSLKAEDTALYYCTKDFYHSLNNWNYYYFDYWGQGTLVTVSS
VL: not shown
notes: also called anti-IsdB bival; bivalent IsdB antibody
As for B7, in assay [10], binding was put at a Kd of 1.75 nM, the T1/2 was found to be 18 min, the dissociation rate constant (koff) stood at 0.00064 s⁻¹ and the kon amounted to 365000 M⁻¹ s⁻¹.

B8: mAb11829, parental anti-HA bivalent antibody (antibody, V domains shown)
VH: QVHLVQSGPEVKKPGSSVKVSCKASGVTFISHAISWVRQAPGQGLEWVGGIIAIFGTTNYAQKFQGRVTVTTDKSTNTVYMELSRLRSEDTAIYYCARGETYYEGNFDFWGQGTLVTVSS
VL: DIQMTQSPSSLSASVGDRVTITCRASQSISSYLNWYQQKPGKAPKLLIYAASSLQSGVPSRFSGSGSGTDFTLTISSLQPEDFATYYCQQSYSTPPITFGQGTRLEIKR
notes: also called Flu A, group 1 HA; parental HA bivalent antibody
Regarding B8, in [11], a half-maximal response (EC50) required 1.46 nM and the “Maximum binding (RLUs)” value was 788000 RLU. Moreover, in assay [12], the “CDC EC50 (H1N1-infected MDCK cells)” value came out at 20.8 nM and the “Maximum percent specific lysis (CDC of H1N1-infected MDCK cells)” value (“Maximum percent specific lysis” for short) is 35.8%.

B9: REGN6093, anti-Influenza HA x anti-C1q bispecific antibody (bispecific antibody, V domains shown)
VH 1: B8 VH
VH 2: B1 VH 2
VL: not shown
notes: also called FluA group 1 x C1q bispecific; anti-HA x anti-C1q
In assay [13], B9 registered a Kd of 516 nM, a koff of 0.0937 s⁻¹, a kon of 182000 M⁻¹ s⁻¹ and a t1/2 of 0.12 min. In addition, in assay [11], the EC50 was found to be 1.84 nM and the “Maximum binding (RLUs)” value stood at 849000 RLU. In [14], this molecule yielded an equilibrium dissociation constant (Kd) of 0.451 nM, a dissociation rate constant (koff) of 0.00216 s⁻¹, an on-rate constant (kon) of 4.8e+06 M⁻¹ s⁻¹ and a t1/2 of 5.3 min. In [15], the Kd was found to be 1.11 nM, the koff amounted to 0.00401 s⁻¹, the on-rate constant (kon) is 3.61e+06 M⁻¹ s⁻¹ and the t1/2 was found to be 2.9 min. For the same molecule, in assay [16], the equilibrium dissociation constant (Kd) is 327 nM, the koff was 0.0309 s⁻¹, the kon amounted to 94600 M⁻¹ s⁻¹ and the t1/2 is 0.37 min. In [12], the “CDC EC50 (H1N1-infected MDCK cells)” value was 10.5 nM and the “Maximum percent specific lysis” value turned out to be 30%.

B10: mAb27250, one-arm parental HA antibody (antibody, V domains shown)
VH: B8 VH
VL: not shown
notes: also called Flu A, group 1, one arm
B10: in assay [11], the concentration for a half-maximal effect (EC50) was determined as 0.648 nM and the “Maximum binding (RLUs)” value worked out at 719000 RLU. Besides, in assay [12], the “CDC EC50 (H1N1-infected MDCK cells)” value is 20.7 nM and the “Maximum percent specific lysis” value came out at 39%.

B11: Rituximab (antibody, V domains shown)
VH: QVQLQQPGAELVKPGASVKMSCKASGYTFTSYNMHWVKQTPGRGLEWIGAIYPGNGDTSYNQKFKGKATLTADKSSSTAYMQLSSLTSEDSAVYYCARSTYYGGDWYFNVWGAGTTVTVSA
VL: QIVLSQSPAILSASPGEKVTMTCRASSSVSYIHWFQQKPGSSPKPWIYATSNLASGVPVRFSGSGSGTSYSLTISRVEAEDAATYYCQQWTSNPPTFGGGTKLEIK
As to B11, the 50% effective concentration (EC50) in assay [2] and in assay [4] was 3.14 nM in each case.

One may read the Kd as a measure of binding affinity in units of concentration. Lower therefore signals a tighter complex. By koff is commonly meant a measure of how fast the partners let go of each other. A higher koff goes with a short-lived complex. A word on the kon: it is the second-order rate constant of association. Broadly, the EC50 is the concentration giving half of the maximal effect. A low value points to greater potency.
